# Data published in US20070243589A1 (Pfizer, published 2007).
# T1: human IL-22 (human, UniProt Q9GZX6 34-179)
# T1 sequence: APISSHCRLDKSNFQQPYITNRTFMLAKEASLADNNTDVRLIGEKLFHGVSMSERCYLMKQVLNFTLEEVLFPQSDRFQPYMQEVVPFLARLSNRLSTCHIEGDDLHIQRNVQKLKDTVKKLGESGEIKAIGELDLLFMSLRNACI
# T2: biotinylated IL-22 with an N-terminal His/FLAG tag (bio.IL-22H/F) (human, UniProt Q9GZX6 34-179, biotinylated (site not stated))
# T2 construct: not shown: N-terminal His/FLAG tag
# T2 sequence: T1 sequence
# B1: 375G06 scFv (non-germlined) (scFv)
# scFv: EVQLVQSGAEVKKPGASVKVSCQASGYTFSDYYIHWVRQTPGQGFEWMGWVNPDTGGTRYAQKFQGWVTMTRDMSNTTAYMELPRLRDDDTAVYYCARDLTGYDYYDRWGQGTLVTVSSGGGGSGGGGSGGGGGGSGGGGGGSGGGGSAQSVLTQPPSMSVAPGKTATITCGGNNFRNKRVHWYQQRPGQAPVLVIYYDSDRPSGIPERFSGSRSGNTATLTISRVEAGDEADFYCQVWDFLADEAMFGGGTKLTVLGAAAH
# notes: Optimized clone derived from GIL68
# B2: 355B06 scFv (non-germlined) (scFv)
# scFv: EVQLVQSGAEVKKPGASVKVSCQASGYTFTDYYMHWVRQAPGQGLEWVGWINPYTGSAFYAQKFRGRATMTRNTSINTAYMELSRLGSDDTAVYYCAREPEKFGESSGQLWGRGTMVTISSGGGGSGGGGSGGSGSAQAVLTQPSSVSGAPGQRVTISCTGSSSNIGPGYGVHWYQQLPGTAPKLLIYGDSNRPSGVPDRFSGSKSGTSASLAITGLQAEDEADYYCQSYDSGLSGYVFGTGTQLTVLSA
# notes: Optimized clone derived from GIL92
# B3: 368D04 scFv (non-germlined) (scFv)
# scFv: EVQLVESGGGVVRPGGSLRLSCAASGFTFDDYGMNWVRQAPGKGLEWVSGVNWNGGTRDYAASVKGRFTISRDNAKNSLYLQMNSLRAEDTALYYCARGWYSGAAWNMGYWGRGTLVTVSSGGGGSGGGGSGGSGGGSGGGGGGSGGGGSAQAVLTQPSSVSGSPGQSITISCTGASGDVGAYNFVSWYQQHPGKTPKLIIYDVNKRPSGVSNRFSGSKSGNTASLTISGLQAEDESDYYCASLVSDFSVVFGGGTKVTVLGAAAH
# notes: Optimized clone derived from GIL60
# B4: 376B10 scFv (non-germlined) (scFv)
# scFv: EVQLVQSGAEVKKPGASVKVSCQASGYTFSDYYIHWVRQTPGQGFEWMGWVNPDTGGTRYAQKFQGWVTMTRDMSNTTAYMELPGLRDDDTAVYYCARDLTGYDQYTAWGQGTLVTVSSGGGGSGGGGSGGGGSAQSVLTQPPSVSVAPGKTATITCGGNNFRNKRVHWYQQRPGQAPVLVIYYDSDRPSGIPERFSGSRSGNTATLTISRVEAGDEADFYCSTFDPFTDRPLFGGGTKLTVLGAAAH
# notes: as for B1
# B5: 354A08 scFv (non-germlined) (scFv)
# scFv: QVQLVQSGAEKKPGASVKVSCKASGYTFTDYYMHWVRQAPGQGLEWVGWINPYTGGAFYAQKFRGRVTMTRDTSINTAYMELSRLGSDDTAVYYCAREPERFGDSTGQVWGRGTMVTVSSGGGGSGGGGSGGSRSAQAVLTQPSSVSGAPRQRVTISCTGSSSNIGAGYGVHWYQQLPGTAPKLLIYGNSNRPSGVPDRFSGSKSGTSASLAITGLQAEDEADYYCYHWDKEQSGYVFGTGTQLTVLSA
# notes: as for B2
# B6: 166G05 scFv (non-germlined) (scFv)
# scFv: EVQLVQSGAEVKKPGASVKVSCQASGYTFSDYYIHWVRQTPGQGFEWMGWVNPDTGGTRYAQKFQGWVTMTRDMSNTTAYMELPRLRDDDTAVYYCARDLTGFDPFDIWGQGTLVTVSSGGGGSGGGGSGGGGSAQSVLTQPPSVSVAPGKTATITCGGNNFRNKRVHWYQQRPGQAPVLVIYYDSDRPSGIPERFSGSRSGNTATLTISRVEAGDEADFYCQVWDFLTDSGSFGGGTKLTVLGAAAH
# notes: as for B1
# B7: 097D09 scFv (non-germlined) (scFv)
# scFv: EVQLVESGGGLVTPGGSLRLSCAASGFTFSDYYMSWVRQAPGRGLEWVSAISGSGGSTYYADSVKGRITISRDNAKNSLYLQMSSLRSEDTAVYYCARGLWVWDPLDYWGRGTLVTVSSGGGGSGGGGSGGGGSDIQMTQSPSTLSASIGDRVTITCRASEGIYHWLAWYQQKPGKAPKLLIYKASSLASGAPSRFSGSGFGTDFTLTISSLQPDDFATYYCQQYSEFAWTFGGGTKLEIKRAAAH
# notes: Optimized clone derived from GIL01
# Target: T1, human IL-22
# Test: cell-based or functional assay
row,IC50 of scFv in BaF3-IL-22 proliferation assay,Binder
1,118 pM,B1
2,183 pM,B2
3,186 pM,B3
4,104 pM,B4
5,219 pM,B5
6,204 pM,B6
7,298 pM,B7

# Target: T2, biotinylated IL-22 with an N-terminal …
# Test: DELFIA competition assay: scFv titrated against bio.IL-22H/F binding to the captured IL-22 receptor complex
# Protocol: Microtiter plates were coated with an IL-22 receptor complex antibody (1 μg/ml in PBS), and incubated for 1.5 hours at room temperature. Plates were washed three times in PBST, and blocked for 1 hour at room temperature with 2% MPBS. After a further 3 washes, diluted cell conditioned medium containing an IL-22 receptor complex was added and incubated overnight at 4° C. Crude scFv supernatants were prepared as described above. The following day, 25 μl of diluted scFv sample and 25 μl of bio.IL-22H/F (6 ng/ml) were added to the washed plates, and incubated for 1.5 hours at room temperature. Plates were washed 3 times in PBST, then binding of bio.IL-22H/F to the IL-22 receptor complex was detected with Europium-Streptavidin and the DELFIA® reagent kit (PerkinElmer). Time Resolved Fluorescence was measured using a Victor 2™ Plate Reader (Perkin Elmer).
# Purified scFv from positive clones identified from the screening were tested in the DELFIA® IL-22 receptor complex competition assay as described above. A titration of scFv concentrations was used in order to establish the clone potency as measured by IC₅₀ values in the assay. Fourteen optimized clones were designated 097D09, 062A09, 062G05, 087B03, 367D04, 368D04, 166B06, 166G05, 375G06, 376B10, 354A08, 355B06, 355E04, and 356A11.
row,IC50,Binder
1,440 pM,B1
2,180 pM,B2
3,320 pM,B3
4,790 pM,B4
5,160 pM,B5
6,190 pM,B6
7,390 pM,B7
